# B1: NP_116010.1 (parent)
# chain: HSLRAVSTDPPHHDHHDEFCLMP
# Experiments:
# [1] = variants of: B1; assay: protein stability index of a GFP-peptide fusion (GPS, HEK-293T) (PSI 1-6); higher = more stable; settings: c terminus: native
# [2] = variants of: B1; assay: as above; settings: c terminus: native; remark: listed apart in the source
Variant,protein stability index [1],protein stability index [2]
HSLRAVSTDPPHHDHHDQFCLMP [E18Q],2.7,1.93
HSLRAVSTDPPHHDHHDEQCLMP [F19Q],2.46,2.26
HSLRAVSTDPPMHDHHDEFCLMP [H12M],2.52,2.12
HSLRAVSYDPPHHDHHDEFCLMP [T8Y],2.54,2.14
HSLRAVSVDPPHHDHHDEFCLMP [T8V],2.26,2.82
HSLRAVSTDPPHHDHVDEFCLMP [H16V],2.98,2
HSLRAVSTDPPHQDHHDEFCLMP [H13Q],2.59,1.89
HSLRAGSTDPPHHDHHDEFCLMP [V6G],2.9,2.49
HSLRAVSTDPPHHDHHDEFSLMP [C20S],2.48,2.35
HSLRAVSTDPPHHDHHDEFCLKP [M22K],4,3.36
HSLRAVSGDPPHHDHHDEFCLMP [T8G],2.68,2.59
HNLRAVSTDPPHHDHHDEFCLMP [S2N],3.12,2.72
HSLFAVSTDPPHHDHHDEFCLMP [R4F],2.11,2.22
HSLRAVSTDPPHHDHHDEFRLMP [C20R],4.76,3.55
HSLRAVSTDPPHHDHHDEFILMP [C20I],4.33,3.11
HSLRAVSTDPMHHDHHDEFCLMP [P11M],2.71,2.95
HSARAVSTDPPHHDHHDEFCLMP [L3A],2.35,2.02
HSLRAVSTDPPHHDHHDEFCWMP [L21W],2.9,1.92
HSLRAVSTDPRHHDHHDEFCLMP [P11R],2.42,2.66
HSLRAVSTDPPIHDHHDEFCLMP [H12I],2.53,1.98
HSLRAVSTDPPHHDHHDHFCLMP [E18H],2.32,3.57
HSGRAVSTDPPHHDHHDEFCLMP [L3G],3.07,2.46
HSLRAVSTDPPHHDHHWEFCLMP [D17W],2.1,3.5
HSLRAVYTDPPHHDHHDEFCLMP [S7Y],2.31,2.02
HSLRAVSTDPPHHAHHDEFCLMP [D14A],2.52,2.35

Variant,protein stability index [1],protein stability index [2]
HSLRAVSTDPPHTDHHDEFCLMP [H13T],2.46,2.38
HSLRAVSCDPPHHDHHDEFCLMP [T8C],2.93,2.64
HSLRAVSTDPFHHDHHDEFCLMP [P11F],2.44,1.5
HSLRAVSTSPPHHDHHDEFCLMP [D9S],2.44,3.56
HSLRAVSTDPPHLDHHDEFCLMP [H13L],2.73,2.11
HSLRAVSTDPPAHDHHDEFCLMP [H12A],2.44,1.65
HSLRAVSTDPPHKDHHDEFCLMP [H13K],2.33,2.31
HSLRAVSRDPPHHDHHDEFCLMP [T8R],2.33,3.01
HSLRAVSTDPPQHDHHDEFCLMP [H12Q],2.69,2.12
HSLRAVSTDPPHHDHHDEWCLMP [F19W],2.52,2.39
HSLRAVSTDPPHHDHEDEFCLMP [H16E],3.25,2.84
HSLRAVSTDPPHHWHHDEFCLMP [D14W],1.97,1.87
HSLRAVSTDPPHHDHHDEFCHMP [L21H],2.92,1.22
HSSRAVSTDPPHHDHHDEFCLMP [L3S],3.2,2.59
HSLQAVSTDPPHHDHHDEFCLMP [R4Q],3.06,1.83
HSLRAVSTDPPHHDHIDEFCLMP [H16I],2.87,1.65
HDLRAVSTDPPHHDHHDEFCLMP [S2D],3.12,2.45
HSLRAVSTDPPHHDHHDNFCLMP [E18N],2.44,2.84
HSLRAVSTDPPHHDKHDEFCLMP [H15K],2.6,2.5
HSLRHVSTDPPHHDHHDEFCLMP [A5H],2.54,1.69
HSLRAVSTDPPHHDHHREFCLMP [D17R],2.16,–
HILRAVSTDPPHHDHHDEFCLMP [S2I],2.49,2.83
HSLRAVSTEPPHHDHHDEFCLMP [D9E],2.48,1.95
HSLRAVSTDPQHHDHHDEFCLMP [P11Q],2.56,1.99
HSLRAVSTDPPHHDHHDEFTLMP [C20T],3.61,2.3

Variant,protein stability index [1],protein stability index [2]
HSLRAVSTFPPHHDHHDEFCLMP [D9F],2.44,3.37
HSLRAVSTDPPHHDHHIEFCLMP [D17I],2.57,2.8
HSLRAVSTDPPHHDMHDEFCLMP [H15M],2.56,2.16
HSLRAVSTDPPHHDHHDEFVLMP [C20V],4.51,3.09
HSLRAVSTDPPHHDHHDCFCLMP [E18C],2.85,2.46
HSLRAVSTDPPHHDHHDGFCLMP [E18G],2.48,–
HSLRAVSTDPKHHDHHDEFCLMP [P11K],2.65,2.58
HSLRAVSTDPPHHDHHDEMCLMP [F19M],2.46,2.6
ESLRAVSTDPPHHDHHDEFCLMP [H1E],3.5,2.41
HSLRAVSTDTPHHDHHDEFCLMP [P10T],2.56,2.11
HSLVAVSTDPPHHDHHDEFCLMP [R4V],2.23,1.96
HSLRAVSTDPPHHDHHTEFCLMP [D17T],2.42,2.33
HSLRAVSTDPPHHDHHDIFCLMP [E18I],2.5,2.05
HSLREVSTDPPHHDHHDEFCLMP [A5E],2.51,2.01
HSLRAVSTDPPHHDHHDEFNLMP [C20N],3.24,2.21
HSLRAVSTDPPHHDHHDEFCEMP [L21E],3.53,2.51
HSLRAVSTWPPHHDHHDEFCLMP [D9W],2.52,1.81
HSLRAVSTDPPHHDHHDEYCLMP [F19Y],2.54,2.33
HSLRAVSTDGPHHDHHDEFCLMP [P10G],2.46,1.84
HSLRAVSTDPPHHDHQDEFCLMP [H16Q],2.77,2.17
HSLRAVSTDPPHHDHHDEICLMP [F19I],2.2,2.89
HSLRAVSTDPPHFDHHDEFCLMP [H13F],2.24,3.29
HSLRAVSTDPPHHCHHDEFCLMP [D14C],2.5,1.99
DSLRAVSTDPPHHDHHDEFCLMP [H1D],3.42,3.31
HTLRAVSTDPPHHDHHDEFCLMP [S2T],2.04,2.11

Variant,protein stability index [1],protein stability index [2]
HSLRAVSTDPPHHDHHDEFCLMM [P23M],3.17,2.12
HSLRIVSTDPPHHDHHDEFCLMP [A5I],2.56,2.96
HSLRAVSTVPPHHDHHDEFCLMP [D9V],2.11,1.94
HSLRAVSTDPPHHDHTDEFCLMP [H16T],2.69,2.58
HSYRAVSTDPPHHDHHDEFCLMP [L3Y],2.38,–
HSLRAVSTDPPHHDHHDEFWLMP [C20W],3.48,3.13
HSLRAVSTDPPHHDHHDEFCAMP [L21A],2.83,1.67
HSLRAVSTDWPHHDHHDEFCLMP [P10W],2.37,2.88
HSLRAVSADPPHHDHHDEFCLMP [T8A],2.75,4.04
HSLRAVSTDPPHHDHHDEFDLMP [C20D],3.8,2.69
TSLRAVSTDPPHHDHHDEFCLMP [H1T],3.55,2.54
HSLRAVSTDPPHHDQHDEFCLMP [H15Q],2.48,2.79
HSLRAVSWDPPHHDHHDEFCLMP [T8W],1.99,2.87
HSLRAVSLDPPHHDHHDEFCLMP [T8L],2.36,2.95
HSLRAISTDPPHHDHHDEFCLMP [V6I],2.27,2.17
HSLRAVSTDPPHHDHHDVFCLMP [E18V],2.58,2.14
HSLRAVSTDPPHHDHMDEFCLMP [H16M],2.56,2.2
HSLRAVSTDPPHHDYHDEFCLMP [H15Y],2.53,1.84
HSLRAKSTDPPHHDHHDEFCLMP [V6K],2.72,2.02
HSLRAVSTDQPHHDHHDEFCLMP [P10Q],2.56,2.28
HSLRAVSTDPPHRDHHDEFCLMP [H13R],2.21,–
HSLRAVSTDPPWHDHHDEFCLMP [H12W],2.27,3.29
HSLRAVSTDPPHHFHHDEFCLMP [D14F],1.99,1.83
HSLRAVSTDPPHHDHHDEFQLMP [C20Q],2.59,1.89
